# In article PMC7698748:
# Target: soluble trimeric SARS-CoV-2 spike protein (residues 1-1208) (SARS-CoV-2), P0DTC2
# Test: SPR
# Settings: remark: other sources report otherwise
binder,measurement,value
"soluble recombinant human DPP4 (residues 29-766), His6-tagged, P27487 29-766 (enzyme) NKGTDDATADSRKTYTLTDYLKNTYRLKLYSLRWISDHEYLYKQENNILVFNAEYGNSSVFLENSTFDEFGHSINDYSISPDGQFILLEYNYVKQWRHSYTASYDIYDLNKRQLITEERIPNNTQWVTWSPVGHKLAYVWNNDIYVKIEPNLPSYRITWTGKEDIIYNGITDWVYEEEVFSAYSALWWSPNGTFLAYAQFNDTEVPLIEYSFYSDESLQYPKTVRVPYPKAGAVNPTVKFFVVNTDSLSSVTNATSIQITAPASMLIGDHYLCDVTWATQERISLQWLRRIQNYSVMDICDYDESSGRWNCLVARQHIEMSTTGWVGRFRPSEPHFTLDGNSFYKIISNEEGYRHICYFQIDKKDCTFITKGTWEVIGIEALTSDYLYYISNEYKGMPGGRNLYKIQLSDYTKVTCLSCELNPERCQYYSVSFSKEAKYYQLRCSGPGLPLYTLHSSVNDKGLRVLEDNSALDKMLQNVQMPSKKLDFIILNETKFWYQMILPPHFDKSKKYPLLLDVYAGPCSQKADTVFRLNWATYLASTENIIVASFDGRGSGYQGDKIMHAINRRLGTFEVEDQIEAARQFSKMGFVDNKRIAIWGWSYGGYVTSMVLGSGSGVFKCGIAVAPVSRWEYYDSVYTERYMGLPTPEDNLDHYRNSTVMSRAENFKQVEYLLIHGTADDNVHFQQSAQISKALVDVGVDFQAMWYTDEDHGIASSTAHQHIYTHMSHFIKQCFSLP",Kd,> 10 µM
